In PMC6779754:

Biological target: GST-Bsx (zebrafish) (UniProt Q6R3Q6)
Experiment: EMSA
Settings: EMSA: DIG Gel Shift Kit (Roche) per manufacturer, 2.0 pmol GST-Bsx with 32 fmol DIG-oligonucleotide or 8 fmol DIG-147bp probe; buffer, pH and temperature not …

Sequence of GST-Bsx (zebrafish) (Q6R3Q6 whole entry): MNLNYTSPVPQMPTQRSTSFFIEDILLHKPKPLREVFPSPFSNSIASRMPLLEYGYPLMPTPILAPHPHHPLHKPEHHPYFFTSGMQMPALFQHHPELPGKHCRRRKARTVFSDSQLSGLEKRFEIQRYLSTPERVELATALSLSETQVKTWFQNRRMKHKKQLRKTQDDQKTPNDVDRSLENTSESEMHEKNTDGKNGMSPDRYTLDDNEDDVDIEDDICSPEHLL

Sequence: GATGGAGAAGTGGACGATCGGCACACCTCCGCAGATGAAGCCCGGAGAGCCGGCGCTGCGCTCTTATGTGAACCCCATGAGTCCAGATTAGGCATCGTACAGGAGTGAGTGGCCAGATTGGGGTCAGACAGGGGGATAATCCAGAGA (double strand) [147bp P3 mutant]
- binding: binds more weakly

Sequence: GATGGAGAAGTGGACGATCGGCACACCTCCGCAGATGAAGCCCGGAGAGCCGGCGCTGCGCTCTTATGTGAACCCCATGAGTCCATCGTAGGCAGATTACAGGAGTGAGTGGCCAGATTGGGGTCAGACAGGGGGATAATCCAGAGA (double strand) [147bp P4 mutant]
- binding: binds

Sequence: TCTCTGGATTATCCCCCTGTCTGACCCCAATCTGGCCACTCACTCCTGTAATCTGCCTAATCTGGACTCATGGGGTTCACATAAGAGCGCAGCGCCGGCTCTCCGGGCTTCATCTGCGGAGGTGTGCCGATCGTCCACTTCTCCATC (double strand) [wt147bp]
- binding: binds
